The term koff denotes a measure of how fast the partners let go of each other. As usually defined, the kon is a measure of how fast the partners come together.

Here are results for two molecules from EP4324849A1 (Emergence Therapeutics AG, dated 2024).

The target in experiment [1] is T1, his-tagged recombinant extra cellular domain of the Nectin-4 protein (R&D systems/Biotechne) (Homo sapiens (Human), UniProt Q96NY8 32-349).
T1 construct: Bought protein; also called His-Nectin-4; recombinant his-tagged Nectin-4 EC; not shown: His tag
T1 sequence: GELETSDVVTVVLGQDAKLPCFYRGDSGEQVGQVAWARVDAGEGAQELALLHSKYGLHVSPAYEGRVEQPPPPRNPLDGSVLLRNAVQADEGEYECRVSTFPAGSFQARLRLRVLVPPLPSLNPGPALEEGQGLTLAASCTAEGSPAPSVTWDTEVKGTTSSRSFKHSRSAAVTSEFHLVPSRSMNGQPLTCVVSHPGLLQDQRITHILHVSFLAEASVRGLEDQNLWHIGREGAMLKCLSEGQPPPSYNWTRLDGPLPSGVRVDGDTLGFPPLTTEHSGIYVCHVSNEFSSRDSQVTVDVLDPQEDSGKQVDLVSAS
The experiment is described as follows: BLI (Octet Red96), His-Nectin-4 ECD as analyte. For orientation: Biolayer interferometry detects binding as a change in optical thickness at a sensor tip.

Experiment [2] concerns the target T2, homodimer recombinant Fc protein, IgV domain of human Nectin-4 fused to human Fc domain (human, UniProt Q96NY8 32-146, limits assumed).
T2 construct: also called Fc-Nectin-4; Fc fusion IgV Nectin-4 domain; not shown: human Fc domain
T2 sequence: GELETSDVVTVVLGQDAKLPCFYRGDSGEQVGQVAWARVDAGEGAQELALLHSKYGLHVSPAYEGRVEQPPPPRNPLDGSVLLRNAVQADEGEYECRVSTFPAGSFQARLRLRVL
Briefly: BLI (Octet Red96), antibody on FAB2G sensor, IgV-Fc homodimer as analyte, 1:2 bivalent analyte model.

Experiment [3] addresses T1, his-tagged recombinant extra cellular …. The experiment is described as follows: BLI (Octet Red96), antibody on AHC sensor, His-Nectin-4 ECD as analyte, 1:1 model.

B1: Ch-5A12.2 (parental chimeric 5A12.2 monoclonal anti-Nectin-4 antibody) (antibody, V domains shown)
VH: QIQLQQSGAELVKPGASVTLSCKTSGFTFNSMYISWLKQKPGQSLEWIAWIYAGTGGTRFNQKFTGKVQLTVDTSSSTAYMQFSSLTTDDSAIYYCAIRSGFVPMDYWGQGTSVTVSS
VL: SIVMTQTPKFLLVSAGDRVTITCKASQSVSNDVAWYQQKPGQSPKLLIYYASNRYTGVPDRFTGSGYGTDFTFTISTVQAEDLAVYFCQQDYSSPWTFGGGTKLEIK
With B1, the figures for the Kd in experiment [1], in experiment [2] and in experiment [3] were 3.4 nM, 5.3 nM and 4.2 nM, respectively. For the same molecule, in experiment [1], the koff amounted to 0.000928 s⁻¹. Also, the kon in experiment [1] came to 275000 M⁻¹ s⁻¹.

B2: HA22 (Enfortumab), human monoclonal anti-Nectin-4 antibody (antibody, V domains shown)
VH: EVQLVESGGGLVQPGGSLRLSCAASGFTFSSYNMNWVRQAPGKGLEWVSYISSSSSTIYYADSVKGRFTISRDNAKNSLSLQMNSLRDEDTAVYYCARAYYYGMDVWGQGTTVTVSS
VL: DIQMTQSPSSVSASVGDRVTITCRASQGISGWLAWYQQKPGKAPKFLIYAASTLQSGVPSRFSGSGSGTDFTLTISSLQPEDFATYYCQQANSFPPTFGGGTKVEIK
In the case of B2, the Kd in experiment [2] was 12.9 nM; in experiment [3], 5.2 nM.
